According to the RNAGym collection of RNA variant scans (doi:10.1073/pnas.2313332121):
Variants at the floor of the assay were thinned out.

B1: TPR 5TU (parent)
chain: GGAUCUUCUCGAUCUAACAAAAAAGACAAAUCUGCCACAAAGCUUGAGAGCAUCUUCGGAUGCAGAGGCGGCAGCCUUCGGUGGCGCGAUAGCGCCAACGUUCUCAACUAUGACACGCAAAACGCGUGCUCCGUUGAAUGGAGUUUAUCAUG

Variants of: B1
Test: polymerase ribozyme fitness, log enrichment relative to wild type (log ratio); higher = more active; in vitro selection for triplet polymerase activity
In short: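 PCR was used to build mutant libraries for each subunit of a heterodimeric triplet polymerase ribozyme, which were then transcribed. A single in vitro selection round, in triplicate, used a frozen incubation at −7 °C and recovered extended constructs by gel excision, streptavidin beads and RT-PCR. Fitness is the logarithm of genotype enrichment relative to wild-type enrichment, averaged over replicates with inverse-variance weights. The logarithm is base 2, and after Illumina sequencing only genotypes with ≥10 input reads and ≥1 read per output were kept.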
For GGAUCUUCUCGAUCUAACAAAAAAGACAAAUCUGCGACAAAGCUUGAGAGCAUUUUCGGAUGCAGAGGCGGCAGCCUUCGGUGGCGCGAUAACGCCAACGUUCUCAACUGUGACACGCAAAACGCGUGCUCCGUUGAAUGGAAUUUAUCAUG [C36G C54U G92A A110G G143A], the “polymerase ribozyme fitness (log ratio)” value was no more than -4.2.
With GGAUCUUCUCGAUCUAACAAAAAAGACAAAUCUGCGACAAAGCUUGAGAGCAUCUUCGGAUGCAGAGGCGGCAGCCUUCGGUGGCGCGAUAGCGCCGACGUUCUCAACUAUGACACGCAAAACGCGUGCUCCGUUGAAUGGAGUUUAUCAUG [C36G A97G] the “polymerase ribozyme fitness (log ratio)” value was -3.56.
In the case of GGAUCUUCUCGAUCUAACAAAAAAGACAAAUCUGCAACAAAGCUUGAGAGCAUCUUCGGAUGCAGAGGCGGCAGCCUACGGUGGCGCGAUAGCGCCAACGUUCUCAACUAUGACACGCAAAACGCGUGCUCCGUUGAAUGGAGUUUAUCAUG [C36A U78A], the “polymerase ribozyme fitness (log ratio)” value is reported as no more than -4.2.
With GGAUCUUCUCGAUCUAACAAAAAAGACAAAUCUGCAACAAAGCUUGAGAGCAUCUGCGGAUGCAGAGGCGGCAGCCUUCGGUGGAGCGAUAGCGCCAACGUUCUCAACUAUGACACGCAAAACGCGUGCUCCGUUGAAUGGAGUUUAUCAUG [C36A U56G C85A] the “polymerase ribozyme fitness (log ratio)” value was no more than -4.2.
With GGAUCUUCUCGAUCUAACAAAAAAGACAAAUCUGCAACAAAGCUUGAGAGCAUCUUCGGAUGCAGAGGCGGCAGCCUUCGGAGGCGCGAUAGCGCCAGCGUUCUCAACUAUGACACGCAAAACGCGUGCUCCGUUGAAUGGAGUUUAUCAUG [C36A U82A A98G] the “polymerase ribozyme fitness (log ratio)” value was -4.01.
With GGAUCUUCUCGAUCUAACAAAAAAGACAAAUCUGCAACAAAGCUUGAGAGCAUCUGCGGAUGCAGAGCCGGCAGCCUUCGGUGGCGCGAUAGCGCCAGCGUUAUCAACUAUGACACGCAAUACGCGUGCUCCGUUGAAUGGAGUUUAUCAUG [C36A U56G G68C A98G C103A A121U] the “polymerase ribozyme fitness (log ratio)” value was no more than -4.2.
In the case of GGAUCUUCUCGAUCUAACAAAAAAGACAAAUCUGCAACAAAGCUUGAGAGCAUCUUCGGAUGCAGAGGCGGCAGCCUUCGGAGGCGCGAGAGCGCCACCGUUCUCAACUAUGACACGCAAAACGCGUGCUCCGUUGAAUGGAGUUUAUCAUG [C36A U82A U90G A98C], the “polymerase ribozyme fitness (log ratio)” value is reported as no more than -4.2.
In the case of GGAUCUUCUCGAUCUAACAAAAAAGACAAAUCUGCGACAAAGCUUGAGAGCAUCUUCGGAUGCAAAGGCGGCAGCCUUCGGUAGCGCGAUAGCGCCACCGUUCUCAACUAUGACACGCAAAACGCGUGCUCCGUUGAAUGGAGUUUAUCAUG [C36G G65A G83A A98C], the “polymerase ribozyme fitness (log ratio)” value is reported as no more than -4.2.
For GGAUCUUCUCGAUCUAACAAAAAAGACAAAUCUGCGACAAAGCUUGAGAGCAUCUUCGUAUGCAGAGGCGGCAGCCUUCGGUGGCGCGAUAGCGCCAACGUUCUGAACUAUGACACGCAAAACGCGUGCUCCGUUGAAUGGAGUUUAUCAUG [C36G G59U C105G], the “polymerase ribozyme fitness (log ratio)” value was no more than -4.2.
In the case of GGAUCUUCUCGAUCUAACAAAAAAGACAAAUCUGCGACAAAGCUUGAGAGCAUCUUCGGAUGCAGAGGCGGCAGCCUUCGGUGGCGCGAUAGCGUCAACGUUCUCAACUAUGACACGCAAAACGCGUGCUCCGUUGAAUGGAGUUUAUCAUG [C36G C95U], the “polymerase ribozyme fitness (log ratio)” value is reported as -3.45.
In the case of GGAUCUUCUCGAUCUAACAAAAAAGACAAAUCUGCGACAAAGCUUGAGAGCAUCUUCGGAUGCAGAGGCGGCAGCCUUCGGUGGCGCGAUAGCGCCAAGGUUCUCAACUAUGACACGCAAAACGCGUGCUCUGUUGAAUGGAGUUCAUCAUG [C36G C99G C132U U146C], the “polymerase ribozyme fitness (log ratio)” value is reported as -4.06.
With GGAUCUUCUCGAUCUAACAAAAAAGACAAAUCUGCAACAAAGCUUGAGAGCAUCUUCGGAUGCAGAGGCGGCAGCCUCCUGUGGCGCGAUAGCGCCAACGUUCUCAACUAUGACACGCAAAACGCGUGCUCCGUUGAAUGGAGUUUAUUAUG [C36A U78C G80U C149U] the “polymerase ribozyme fitness (log ratio)” value was no more than -4.2.
With GGAUCUUCUCGAUCUAACAAAAAAGACAAAUCUGCGACAAAGCUUGAGAGCAUCUUCGGAUGCAGAGGCGGCAGCCUUCGGUUGCGCGAUAGCGCCAACGUUCUCAACUAUGACACGCAAAACGAGUGCUCCGUUGAAUGCAGUAUAUCAUG [C36G G83U C125A G141C U145A] the “polymerase ribozyme fitness (log ratio)” value was -4.09.
With GGAUCUUCUCGAUCUAACAAAAAAGACAAAUCUGCAACAAAGCUUGAGAGCAUCUGCGGAUGCAGAGGCGGCAGCCUUCGGUGGUGCGAUAGUCCCAACGUUCUCAACUAUGACACGCAAAACGCGUGCUCCGUUGAAUGGAGUUUAUCAUG [C36A U56G C85U C93U G94C] the “polymerase ribozyme fitness (log ratio)” value was no more than -4.2.
With GGAUCUUCUCGAUCUAACAAAAAAGACAAAUCUGCGACAAAGCUUGAGAGCAUCUUCGGAUGCAGAGGCGGCAGCCUUCGGUGACGCGAUAGCGCCAACGUUCUCAACUAUGACACGCAAAACGCGUGCUCCGUUGAAUGGAGUUUAUCAUG [C36G G84A] the “polymerase ribozyme fitness (log ratio)” value was -4.19.
In the case of GGAUCUUCUCGAUCUAACAAAAAAGACAAAUCUGCAACAAAGCUUGAGAGCAUCUGCGGAUGCAGAGGCGGCAGCCUUCGGUGGCGCGAUAGCGCCAACGUUCUCAACUAUGACACGCAAAACGCGUGCUCCGUUGAAUGUAGUUUAUCAUG [C36A U56G G141U], the “polymerase ribozyme fitness (log ratio)” value is reported as no more than -4.2.
With GGAUCUUCUCGAUCUAACAAAAAAGACAAAUCUGCGACAAAGCUUGAGAGCAUCUUCGGAUCCAGAGGCGGCAGCCUUCGGUGUCGCGAUAGCGCCAACGUUCUCAACUAUGACACGCAAAACGCGUGCUCCGUUGAAUGGAGUUUAUCAUG [C36G G62C G84U] the “polymerase ribozyme fitness (log ratio)” value was no more than -4.2.
With GGAUCUUCUCGAUCUAACAAAAAAGACAAAUCUGCGACAAAGCUUGAGAGCAUCUUCGGAUGCAGAGGCGGCAGCCUUCGGUGGCGGGAUCGCGCCAUCGUUCUCAACUAUGAUACGCUAAGCGCGUGCUCCGUUGAAUGGAGUUUAUCAUG [C36G C87G A91C A98U C114U A119U A122G] the “polymerase ribozyme fitness (log ratio)” value was no more than -4.2.
For GGAUCUUCUCGAUCUAACAAAAAAGACAAAUCUGCGACAAAGCUUGGGAGCAUCCUCGGAUGCAGAGGCGGCAGCCUUCGGUGUCGCGAUAGCGCCAACGUUCUCAACUAUGACACGCAAAACGCGUGCUCCGUUGAAUGGAGUUUAUAAUG [C36G A47G U55C G84U C149A], the “polymerase ribozyme fitness (log ratio)” value was no more than -4.2.
